Data: PMC12302554

Columns and labels:
[1] = tested on: BCMA-CD19-His fusion protein (bispecific BC19 CAR ectodomain: anti-BCMA scFv + humanized anti-CD19 scFv + hinge); test: SPR; settings: multi-cycle kinetics, 1:1 fit, 7.8-125 nM aptamer; SPR: Biacore 1K, CM5 chip, protein coupled at 20 ug/mL in sodium acetate pH 5.0 (running buffer not given); cell binding: D-PBS, 4.5 g/L glucose, 5 mM MgCl2, 0.
[2] = tested on: BC19 CAR on CAR-T cells (anti-BCMA scFv, humanized anti-CD19 scFv, hinge); test: flow cytometry; settings: SPR: Biacore 1K, CM5 chip, protein coupled at 20 ug/mL in sodium acetate pH 5.0 (running buffer not given); cell binding: D-PBS, 4.5 g/L glucose, 5 mM MgCl2, 0.

Sequence	Kd [1]	Kd [2]
TTCAGCACTCCACGCATAGCACGCTGCCGTGTGCTGCATGTGGTCGTGTGTCCGTGCCTATGCGTGCTACCGTGAA [Aptamer A3]	37 nM	–
TTCAGCACTCCACGCATAGCACGCTGCCGTGTGCTGCATGTGGTCGTGTGTCCGTGCCTATGCGTGCTACCGTGAA [FAM-Aptamer A3]	–	17 nM
